Test results from patent US20150344570A1 (published 2015).

Legend:
[1] = biological target: T1, FcγRIIa R (human, UniProt P12318 34-217); assay: SPR (Biacore); He/Con_2aR divided by He/Con_2b (FcγRIIa R over FcγRIIb)
T1 construct: extracellular domain; also called FcgRIIa R type; 2aR
T1 sequence (looked up): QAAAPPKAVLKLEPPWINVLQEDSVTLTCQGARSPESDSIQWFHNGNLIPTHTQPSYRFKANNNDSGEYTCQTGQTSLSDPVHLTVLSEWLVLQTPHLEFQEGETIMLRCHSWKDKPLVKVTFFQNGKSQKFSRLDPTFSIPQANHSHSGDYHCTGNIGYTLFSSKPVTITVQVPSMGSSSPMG

[2] = biological target: T1, FcγRIIa R; assay: SPR (Biacore), captured antibody, FcγR as analyte; relative binding, control GpH7-A5/GpH7-B3/GpL16-k0 = 100
Procedure: (§1) The heterodimerized antibodies He Abs in which one of the H chains was introduced with an alteration were assayed for their binding activities to each activating FcγR and inhibitory FcγR according to the method described in Example 4. […] The activating FcγRs in FIGS. 26, 27, 28, and 29 are FcγRIa, FcγRIIa (R), FcγRIIa (H), and FcγRIIIa, respectively.
(§2) Analysis of interaction between objective antibody and the FcγR was carried out using Biacore T100 (GE Healthcare). HBS-EP+ (GE Healthcare) was used as the running buffer, and the measurement temperature was set to 25° C. Chips produced by immobilizing the antigen peptide by the amine coupling method to a Series S Sencor Chip CM5 (GE Healthcare), or alternatively, chips produced by allowing preliminarily biotinylated antigen peptides to interact with and immobilize onto a Series S Sensor Chip SA (certified) (GE Healthcare) were used. Antibodies of interest were captured onto an antigen peptide-immobilized chip, and allowed to interact to each FcγR diluted with running buffer. To regenerate and repeatedly use the chip, the antibodies captured on the chip were washed off by reacting 10 mM glycine-HCl, pH 1.5.

[3] = biological target: T2, FcγRIIb (human, UniProt P31994 43-217); assay: as above
T2 construct: extracellular domain; also called FcgRIIb; 2b
T2 sequence (looked up): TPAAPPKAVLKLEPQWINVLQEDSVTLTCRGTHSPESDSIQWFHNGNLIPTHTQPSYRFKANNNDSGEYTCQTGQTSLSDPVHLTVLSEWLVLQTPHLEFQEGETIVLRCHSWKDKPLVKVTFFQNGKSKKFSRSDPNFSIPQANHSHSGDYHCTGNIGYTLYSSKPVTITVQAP
Procedure: as §1, §2

Row | Binder | He_2aR/2b (IIaR/IIb) [1] | He/Con_2aR [2] | He/Con_2b [3]
1 | GpH7-A5/GpH7-B3 variant E269_03V/GpL16-k0 (antibody, human IgG1, kappa, heterodimerized anti-glypican-3 IgG1; alteration in one H chain only; also called He Ab) heavy 1: not shown heavy 2: not shown light: DIVMTQSPLSLPVTPGEPASISCQASESLVHSNRNTYLHWYLQKPGQSPQLLIYKVSNRFSGVPDRFSGSGSGTDFTLKISRVEAEDVGVYYCSQNTHVPPTFGQGTKVEIERTVAAPSVFIFPPSDEQLKSGTASVVCLLNNFYPREAKVQWKVDNALQSGNSQESVTEQDSKDSTYSLSSTLTLSKADYEKHKVYACEVTHQGLSSPVTKSFNRGEC | 1.3 ratio | 58.8 control = 100 | 45.1 control = 100
2 | GpH7-A5/GpH7-B3 variant E269_07I/GpL16-k0 (antibody, human IgG1, kappa, heterodimerized anti-glypican-3 IgG1; alteration in one H chain only; also called He Ab) heavy 1: not shown heavy 2: not shown light: DIVMTQSPLSLPVTPGEPASISCQASESLVHSNRNTYLHWYLQKPGQSPQLLIYKVSNRFSGVPDRFSGSGSGTDFTLKISRVEAEDVGVYYCSQNTHVPPTFGQGTKVEIERTVAAPSVFIFPPSDEQLKSGTASVVCLLNNFYPREAKVQWKVDNALQSGNSQESVTEQDSKDSTYSLSSTLTLSKADYEKHKVYACEVTHQGLSSPVTKSFNRGEC | 1.34 ratio | 58.8 control = 100 | 43.9 control = 100
3 | GpH7-A5/GpH7-B3 variant H268_08L/GpL16-k0 (antibody, human IgG1, kappa, heterodimerized anti-glypican-3 IgG1; alteration in one H chain only; also called He Ab) heavy 1: not shown heavy 2: not shown light: DIVMTQSPLSLPVTPGEPASISCQASESLVHSNRNTYLHWYLQKPGQSPQLLIYKVSNRFSGVPDRFSGSGSGTDFTLKISRVEAEDVGVYYCSQNTHVPPTFGQGTKVEIERTVAAPSVFIFPPSDEQLKSGTASVVCLLNNFYPREAKVQWKVDNALQSGNSQESVTEQDSKDSTYSLSSTLTLSKADYEKHKVYACEVTHQGLSSPVTKSFNRGEC | 1.25 ratio | 85 control = 100 | 67.8 control = 100
4 | GpH7-A5/GpH7-B3 variant E269_08L/GpL16-k0 (antibody, human IgG1, kappa, heterodimerized anti-glypican-3 IgG1; alteration in one H chain only; also called He Ab) heavy 1: not shown heavy 2: not shown light: DIVMTQSPLSLPVTPGEPASISCQASESLVHSNRNTYLHWYLQKPGQSPQLLIYKVSNRFSGVPDRFSGSGSGTDFTLKISRVEAEDVGVYYCSQNTHVPPTFGQGTKVEIERTVAAPSVFIFPPSDEQLKSGTASVVCLLNNFYPREAKVQWKVDNALQSGNSQESVTEQDSKDSTYSLSSTLTLSKADYEKHKVYACEVTHQGLSSPVTKSFNRGEC | 1.33 ratio | 57.2 control = 100 | 42.9 control = 100
5 | GpH7-A5/GpH7-B3 variant E269_04F/GpL16-k0 (antibody, human IgG1, kappa, heterodimerized anti-glypican-3 IgG1; alteration in one H chain only; also called He Ab) heavy 1: not shown heavy 2: not shown light: DIVMTQSPLSLPVTPGEPASISCQASESLVHSNRNTYLHWYLQKPGQSPQLLIYKVSNRFSGVPDRFSGSGSGTDFTLKISRVEAEDVGVYYCSQNTHVPPTFGQGTKVEIERTVAAPSVFIFPPSDEQLKSGTASVVCLLNNFYPREAKVQWKVDNALQSGNSQESVTEQDSKDSTYSLSSTLTLSKADYEKHKVYACEVTHQGLSSPVTKSFNRGEC | 1.29 ratio | 58.2 control = 100 | 45 control = 100
6 | GpH7-A5/GpH7-B3 variant E269_06M/GpL16-k0 (antibody, human IgG1, kappa, heterodimerized anti-glypican-3 IgG1; alteration in one H chain only; also called He Ab) heavy 1: not shown heavy 2: not shown light: DIVMTQSPLSLPVTPGEPASISCQASESLVHSNRNTYLHWYLQKPGQSPQLLIYKVSNRFSGVPDRFSGSGSGTDFTLKISRVEAEDVGVYYCSQNTHVPPTFGQGTKVEIERTVAAPSVFIFPPSDEQLKSGTASVVCLLNNFYPREAKVQWKVDNALQSGNSQESVTEQDSKDSTYSLSSTLTLSKADYEKHKVYACEVTHQGLSSPVTKSFNRGEC | 1.32 ratio | 61.7 control = 100 | 46.7 control = 100
7 | GpH7-A5/GpH7-B3 variant E269_20W/GpL16-k0 (antibody, human IgG1, kappa, heterodimerized anti-glypican-3 IgG1; alteration in one H chain only; also called He Ab) heavy 1: not shown heavy 2: not shown light: DIVMTQSPLSLPVTPGEPASISCQASESLVHSNRNTYLHWYLQKPGQSPQLLIYKVSNRFSGVPDRFSGSGSGTDFTLKISRVEAEDVGVYYCSQNTHVPPTFGQGTKVEIERTVAAPSVFIFPPSDEQLKSGTASVVCLLNNFYPREAKVQWKVDNALQSGNSQESVTEQDSKDSTYSLSSTLTLSKADYEKHKVYACEVTHQGLSSPVTKSFNRGEC | 1.3 ratio | 55.5 control = 100 | 42.5 control = 100
8 | GpH7-A5/GpH7-B3 variant E269_15Y/GpL16-k0 (antibody, human IgG1, kappa, heterodimerized anti-glypican-3 IgG1; alteration in one H chain only; also called He Ab) heavy 1: not shown heavy 2: not shown light: DIVMTQSPLSLPVTPGEPASISCQASESLVHSNRNTYLHWYLQKPGQSPQLLIYKVSNRFSGVPDRFSGSGSGTDFTLKISRVEAEDVGVYYCSQNTHVPPTFGQGTKVEIERTVAAPSVFIFPPSDEQLKSGTASVVCLLNNFYPREAKVQWKVDNALQSGNSQESVTEQDSKDSTYSLSSTLTLSKADYEKHKVYACEVTHQGLSSPVTKSFNRGEC | 1.29 ratio | 57.6 control = 100 | 44.7 control = 100
9 | GpH7-A5/GpH7-B3 variant E269_16H/GpL16-k0 (antibody, human IgG1, kappa, heterodimerized anti-glypican-3 IgG1; alteration in one H chain only; also called He Ab) heavy 1: not shown heavy 2: not shown light: DIVMTQSPLSLPVTPGEPASISCQASESLVHSNRNTYLHWYLQKPGQSPQLLIYKVSNRFSGVPDRFSGSGSGTDFTLKISRVEAEDVGVYYCSQNTHVPPTFGQGTKVEIERTVAAPSVFIFPPSDEQLKSGTASVVCLLNNFYPREAKVQWKVDNALQSGNSQESVTEQDSKDSTYSLSSTLTLSKADYEKHKVYACEVTHQGLSSPVTKSFNRGEC | 1.32 ratio | 50.7 control = 100 | 38.5 control = 100

More lines, now with the values ahead:

Row | He_2aR/2b (IIaR/IIb) [1] | He/Con_2aR [2] | He/Con_2b [3] | Binder
10 | 1.32 ratio | 59.2 control = 100 | 44.8 control = 100 | GpH7-A5/GpH7-B3 variant E269_18N/GpL16-k0 (antibody, human IgG1, kappa, heterodimerized anti-glypican-3 IgG1; alteration in one H chain only; also called He Ab) heavy 1: not shown heavy 2: not shown light: DIVMTQSPLSLPVTPGEPASISCQASESLVHSNRNTYLHWYLQKPGQSPQLLIYKVSNRFSGVPDRFSGSGSGTDFTLKISRVEAEDVGVYYCSQNTHVPPTFGQGTKVEIERTVAAPSVFIFPPSDEQLKSGTASVVCLLNNFYPREAKVQWKVDNALQSGNSQESVTEQDSKDSTYSLSSTLTLSKADYEKHKVYACEVTHQGLSSPVTKSFNRGEC
11 | 1.39 ratio | 35 control = 100 | 25.2 control = 100 | GpH7-A5/GpH7-B3 variant E269_12R/GpL16-k0 (antibody, human IgG1, kappa, heterodimerized anti-glypican-3 IgG1; alteration in one H chain only; also called He Ab) heavy 1: not shown heavy 2: not shown light: DIVMTQSPLSLPVTPGEPASISCQASESLVHSNRNTYLHWYLQKPGQSPQLLIYKVSNRFSGVPDRFSGSGSGTDFTLKISRVEAEDVGVYYCSQNTHVPPTFGQGTKVEIERTVAAPSVFIFPPSDEQLKSGTASVVCLLNNFYPREAKVQWKVDNALQSGNSQESVTEQDSKDSTYSLSSTLTLSKADYEKHKVYACEVTHQGLSSPVTKSFNRGEC
12 | 1.28 ratio | 61.2 control = 100 | 47.8 control = 100 | GpH7-A5/GpH7-B3 variant E269_13S/GpL16-k0 (antibody, human IgG1, kappa, heterodimerized anti-glypican-3 IgG1; alteration in one H chain only; also called He Ab) heavy 1: not shown heavy 2: not shown light: DIVMTQSPLSLPVTPGEPASISCQASESLVHSNRNTYLHWYLQKPGQSPQLLIYKVSNRFSGVPDRFSGSGSGTDFTLKISRVEAEDVGVYYCSQNTHVPPTFGQGTKVEIERTVAAPSVFIFPPSDEQLKSGTASVVCLLNNFYPREAKVQWKVDNALQSGNSQESVTEQDSKDSTYSLSSTLTLSKADYEKHKVYACEVTHQGLSSPVTKSFNRGEC
13 | 1.31 ratio | 57.8 control = 100 | 44.3 control = 100 | GpH7-A5/GpH7-B3 variant E269_19Q/GpL16-k0 (antibody, human IgG1, kappa, heterodimerized anti-glypican-3 IgG1; alteration in one H chain only; also called He Ab) heavy 1: not shown heavy 2: not shown light: DIVMTQSPLSLPVTPGEPASISCQASESLVHSNRNTYLHWYLQKPGQSPQLLIYKVSNRFSGVPDRFSGSGSGTDFTLKISRVEAEDVGVYYCSQNTHVPPTFGQGTKVEIERTVAAPSVFIFPPSDEQLKSGTASVVCLLNNFYPREAKVQWKVDNALQSGNSQESVTEQDSKDSTYSLSSTLTLSKADYEKHKVYACEVTHQGLSSPVTKSFNRGEC
14 | 1.23 ratio | 81 control = 100 | 65.7 control = 100 | GpH7-A5/GpH7-B3 variant H268_06M/GpL16-k0 (antibody, human IgG1, kappa, heterodimerized anti-glypican-3 IgG1; alteration in one H chain only; also called He Ab) heavy 1: not shown heavy 2: not shown light: DIVMTQSPLSLPVTPGEPASISCQASESLVHSNRNTYLHWYLQKPGQSPQLLIYKVSNRFSGVPDRFSGSGSGTDFTLKISRVEAEDVGVYYCSQNTHVPPTFGQGTKVEIERTVAAPSVFIFPPSDEQLKSGTASVVCLLNNFYPREAKVQWKVDNALQSGNSQESVTEQDSKDSTYSLSSTLTLSKADYEKHKVYACEVTHQGLSSPVTKSFNRGEC
15 | 1.3 ratio | 66 control = 100 | 50.6 control = 100 | GpH7-A5/GpH7-B3 variant E269_14T/GpL16-k0 (antibody, human IgG1, kappa, heterodimerized anti-glypican-3 IgG1; alteration in one H chain only; also called He Ab) heavy 1: not shown heavy 2: not shown light: DIVMTQSPLSLPVTPGEPASISCQASESLVHSNRNTYLHWYLQKPGQSPQLLIYKVSNRFSGVPDRFSGSGSGTDFTLKISRVEAEDVGVYYCSQNTHVPPTFGQGTKVEIERTVAAPSVFIFPPSDEQLKSGTASVVCLLNNFYPREAKVQWKVDNALQSGNSQESVTEQDSKDSTYSLSSTLTLSKADYEKHKVYACEVTHQGLSSPVTKSFNRGEC
16 | 2.14 ratio | 38.1 control = 100 | 17.8 control = 100 | GpH7-A5/GpH7-B3 variant E269_11K/GpL16-k0 (antibody, human IgG1, kappa, heterodimerized anti-glypican-3 IgG1; alteration in one H chain only; also called He Ab) heavy 1: not shown heavy 2: not shown light: DIVMTQSPLSLPVTPGEPASISCQASESLVHSNRNTYLHWYLQKPGQSPQLLIYKVSNRFSGVPDRFSGSGSGTDFTLKISRVEAEDVGVYYCSQNTHVPPTFGQGTKVEIERTVAAPSVFIFPPSDEQLKSGTASVVCLLNNFYPREAKVQWKVDNALQSGNSQESVTEQDSKDSTYSLSSTLTLSKADYEKHKVYACEVTHQGLSSPVTKSFNRGEC
